Measured values: patent US20240093159A1 (UNIVERSITY OF DUNDEE, published 2024)

Tests used:
[1] = molecular target: T1, commercially sourced Im7 linked to Sepharose (UniProt Q03708 1-87, linked to Sepharose resin); test: E. coli cytosol incubated with Im7-Sepharose, extensive washing, TEV release, SDS-PAGE
T1 construct: also called Im7-Sepharose; Im7-agarose
T1 sequence: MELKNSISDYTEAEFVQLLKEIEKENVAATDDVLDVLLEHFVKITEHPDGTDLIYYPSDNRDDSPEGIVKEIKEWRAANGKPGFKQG

[2] = molecular target: T2, Human IL17RA protein (SinoBiological) (human, UniProt Q96F46 33-320); test: receptor binding ELISA, IL17RA coated at 0.25 ug/well
T2 construct: Coated on ELISA plates at 0.25 ug/well; also called IL17RA receptor
T2 sequence (looked up): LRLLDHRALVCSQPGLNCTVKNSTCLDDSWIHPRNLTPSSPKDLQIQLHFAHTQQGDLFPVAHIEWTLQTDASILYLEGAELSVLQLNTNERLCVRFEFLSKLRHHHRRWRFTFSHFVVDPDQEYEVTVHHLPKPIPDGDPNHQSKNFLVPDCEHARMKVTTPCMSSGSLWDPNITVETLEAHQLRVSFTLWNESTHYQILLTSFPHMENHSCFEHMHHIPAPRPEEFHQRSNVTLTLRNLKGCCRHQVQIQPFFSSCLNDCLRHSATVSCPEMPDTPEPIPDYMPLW

B1: ColE7-IL33 fusion (Colicin E7 catalytic domain, linker, TEV site, murine IL-33 C-terminal fragment) (other)
chain: ESKRNKPGKATGKGKPVNNKWLNNAGKDLGSPVPDRIANKLRDKEFKSFDDFRKKFWEEVSKDPELSKQFSRNNNDRMKVGKAPKTRTQDVSGKATSFALHHEKPISQNGGVYDMDNISVVTPKRAIDIHRGKSGGGSSGSGENLYFQGSSIQGTSLLTQSPASLSTYNDQSVSFVLENGCYVINVDKSGKDQEQDQVLLRYYKSPCPASQSGDGVDGKKLMVNMSPIKDTDIWLHANDKDYSVELQRGDVSPPEQAFFVLHKKSSDFVSFECKNLPGTYIGVKDNQLALVEEKDESCNNIMFKLSKI
notes: also called ColE7-1L33; ColicinE7-IL33
[1]
  binding result: binds

B2: IL33 purified on Im7-Sepharose and released from ColE7 by TEV protease (ligand)
chain: GSSIQGTSLLTQSPASLSTYNDQSVSFVLENGCYVINVDKSGKDQEQDQVLLRYYKSPCPASQSGDGVDGKKLMVNMSPIKDTDIWLHANDKDYSVELQRGDVSPPEQAFFVLHKKSSDFVSFECKNLPGTYIGVKDNQLALVEEKDESCNNIMFKLSKI
[2]
  binding result: no binding
